Values of other authors in US11207384B2, “Rapid-acting insulin compositions” (Eli Lilly and Company, priority 2017, dated 2021).

Experiments:
[1] = for time until maximum circulating insulin concentration is reached: following the injection
[2] = on a molar basis
insulin receptor = target: T1, insulin receptor (Homo sapiens, UniProt P06213); details: insulin receptor binding in cultured lymphocytes, human placenta and human liver, glucose transport in adipocytes
T1 construct: host or cells: cultured lymphocytes, human placenta, human liver

equivalence to insulin in in vitro tests (in words) (insulin receptor)	Substance	time until maximum circulating insulin concentration is reached [1] [min]	kinetics compared to human insulin (in words) ([1]; Tmax, half-life, Cmax)	effect after subcutaneous injection compared with soluble human insulin (in words) ([1]; subcutaneous injection)	potency relative to human insulin (in words) [2]
	insulin aspart	50 to 90			
	insulin glulisine	50 to 90			
biologically equivalent to insulin	insulin lispro	50 to 90	shorter Tmax and half-life and with a higher Cmax	more rapid and of shorter duration than that of injected soluble human insulin	equipotent to human insulin on a molar basis
